{"source": "patent US20080293626A1", "about": "“Pigment epithelium-derived factor as a therapeutic agent for vascular leakage” (The Johns Hopkins University, priority 2003, published 2008)", "target": "PEDF receptor (unidentified cell surface receptor on bovine retinal capillary endothelial cells)", "assay": "cell-based or functional assay"}
{"substance": "Recombinant human pigment epithelium-derived factor (PEDF) (from UniProt P36955 20-418) (ligand)", "values": [{"measurement": "inhibition of VEGF stimulated endothelial cell migration (BRCEC microchemotaxis chamber), IC50", "result": 0.5, "unit": "nM"}]}
